Measured values reported in patent US20070134249A1 (GENITOPE, published 2007).

Legend:
Assay in all cases: ELISA
Parameters in all cases: key to grade: 0 = <0.5 OD, 1 = 0.5-1.0 OD, 4 = 1-4 OD
733 = target: T1, 733
T1 construct: H3-48 L2-14; also called PIN733
From the text: (§1) Before specificity screening, all of the clonal immunogen-positive hybridoma supernatants were re-screened on the immunogen, a non-family member Id protein, and KLH, if animals were immunized with Id protein that has been conjugated KLH. As described above, this screen identifies HC-specific clones but not mAbs against the light chain constant region. Clones identified positive to the immunogen and KLH were […]. Those found positive to the immunogen but not to the non-family member Id protein or KLH were tittered on the immunogen. In addition to normalizing for different binding affinities and concentrations, each hybridoma supernatant was titered on the fully human form of the Id protein used as the immunogen(s) for the V regions. The titer or dilution resulting in an ELISA absorbance of 2.5 to 3 OD after 30 min. incubation time was then used. Hybridoma specificity was determined by screening against available Id proteins expressing the same HV and KV or LV as well as different HV, KV and LV. The final ELISA results are expressed as follows: 0 (<0.5 OD), 1 (0.5-1.0 OD), or 4 (1-4 OD). Positive hybridoma supernatants are categorized according to specificity: anti-Id, anti-constant region (HC, KC or LC), or V region (HV, KV, LV family or family member).
(§2) In general, the fully human Id protein or proteins containing the immunogen V regions were coated onto 96-well ELISA plates at 2.5-5 ug/mL in carbonate buffer pH 9.6 and incubated at 4° C. for up to 14 days. On the day of the ELISA, plates were brought to RT and blocked with Tris-Tween-20, pH 7.6 for 15-60 min. at RT. Following a NaCl and Triton X-100 wash, diluted hybridoma cell culture supernatants were incubated overnight at 4° C. Hybridoma supernatant dilutions ranged from 1:2 to 1:25 and were prepared in PBS with 5% BSA. Plates were washed and incubated with HRP-conjugated goat anti-mouse IgG-specific detecting antibody. A chromogenic substrate (TMB) was used to measure the amount of mouse antibody bound to each well. The reaction was stopped at or before 30 minutes with IN H2SO4 and plates were read immediately. Absorbency readings at 450 nm ranging between 0-4 OD and using Molecular Devices plate reader and SOFTMAX PRO software.

102 = target: T2, 102
T2 construct: H1-18 L1-44; also called PIN102
From the text: as §1, §2

196 = target: T3, 196
T3 construct: H4-31 L2-23; also called PIN196
From the text: as §1, §2

662 = target: T4, 662
T4 construct: fully human Id protein; also called PIN662
From the text: as §1, §2

552 = target: T5, 552
T5 construct: H1-18 L2-8; also called PIN552
From the text: as §1, §2

164 = target: T6, 164
T6 construct: H4-39 L2-14; also called PIN164
From the text: as §1, §2

747 = target: T7, 747
T7 construct: H3-23 L2-14; also called PIN747
From the text: as §1, §2

746 = target: T8, 746
T8 construct: H4-39 L2-8; also called PIN746
From the text: as §1, §2

625 = target: T9, 625
T9 construct: H4-61 L2-8; also called PIN625
From the text: as §1, §2

1131 = target: T10, 1131
T10 construct: H4-31 L3-25; also called PIN1131
From the text: as §1, §2

1056 = target: T11, 1056
T11 construct: H3-48 L2-14; also called PIN1056
From the text: as §1, §2

551 = target: T12, 551
T12 construct: H3-23 L1-40; also called PIN551
From the text: as §1, §2

[1] = target: T13, PIN574 fully human Id protein (HV4-39 / LV1-40) (human)
T13 construct: Recombinant patient-derived idiotype immunoglobulin used as antigen, fully human form; also called Immunogen (for 20H5); not shown: human immunoglobulin heavy chain constant region, isotype G3 (HCG3); human immunoglobulin lambda light chain constant region (LC)
From the text: as §1, §2

1167 = target: T14, 1167
T14 construct: H3-23 L2-14; also called PIN1167
From the text: as §1, §2

116 = target: T15, 116
T15 construct: fully human Id protein; also called PIN116
From the text: as §1, §2

1067 = target: T16, 1067
T16 construct: H1-8 L2-23; also called PIN1067
From the text: as §1, §2

534 = target: T17, 534
T17 construct: H3-11 L1-47; also called PIN534
From the text: as §1, §2

762 = target: T18, 762
T18 construct: H3-7 L3-10; also called PIN762
From the text: as §1, §2

T4 sequence (heavy, as listed by the source): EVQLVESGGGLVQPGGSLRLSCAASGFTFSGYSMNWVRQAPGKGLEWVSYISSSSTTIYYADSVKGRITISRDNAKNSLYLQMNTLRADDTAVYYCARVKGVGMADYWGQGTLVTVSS
T13 sequence (VH, as listed by the source, chain 1 of 2): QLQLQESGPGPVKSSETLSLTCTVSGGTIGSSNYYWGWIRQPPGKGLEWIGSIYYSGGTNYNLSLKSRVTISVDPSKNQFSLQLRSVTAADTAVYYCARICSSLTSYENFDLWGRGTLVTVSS
T13 sequence (VL, as listed by the source, chain 2 of 2): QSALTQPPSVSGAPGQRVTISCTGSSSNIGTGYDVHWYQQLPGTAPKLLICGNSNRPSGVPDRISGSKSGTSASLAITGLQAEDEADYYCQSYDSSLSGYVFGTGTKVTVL
T15 sequence (VH, as listed by the source, chain 1 of 2): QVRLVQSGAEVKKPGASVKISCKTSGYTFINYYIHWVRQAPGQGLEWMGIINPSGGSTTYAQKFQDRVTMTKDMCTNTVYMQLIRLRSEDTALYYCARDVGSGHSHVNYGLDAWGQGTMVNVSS
T15 sequence (V domain, as listed by the source, chain 2 of 2): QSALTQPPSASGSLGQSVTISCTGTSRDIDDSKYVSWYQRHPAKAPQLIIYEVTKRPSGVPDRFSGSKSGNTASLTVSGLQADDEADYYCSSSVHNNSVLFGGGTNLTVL

B1: mAb clone 4H11 (antibody, V domains shown)
VH: EVKLVESGGGLVKPGGSLKLSCAASGFAFSNYDMSWVRQTPEKRLEWVATIRSDDSYTYYPDSVKGRFTISRDNARNTLYLQMSSLRSEDTAFYYCARREGNYAMDYWGQGTSVTVSS
VL: DIQMTQSPASLSVSVGETVTITCRASENIYSYLAWYQQKKGKSPQLLVYAATNLGDGVPTRFSGSGSGTQYSLKINSLQSEDFGSYYCQHFWGNPLTFGAGTKLELKR
notes: Mouse hybridoma mAb
B1 gave a grade 733 of 4, a grade 102 of 4 and a grade 196 of 4. For the same binder, the grade 662 was 4, the grade 552 was 4 and the grade 164 was 4. For the same binder, the grade 747 was 1, the grade 746 was 1 and the grade 625 was 4. It also gave a grade 1131 of 4, a grade 1056 of 4 and a grade 551 of 4. For the same binder, the grade [1] was 4, the grade 1167 was 4 and the binding result 116 was “no binding”. The grade 1067 was 4, the grade 534 was 4 and the grade 762 was 4.
